Here are results for 21 sequences from the DeepSol protein solubility set.

A short description of this data set: soluble on expression in E. coli; label from the status in PepcDB or PDB records.
For “MEMMPNIEELRKMRKNLGISQKDLAKVTGVSQSYIARLEKGTINPTYSKIKAIYEYLTKSSEKASTMVLTCDRIMTRNVVVCRSDESILNALNIMRDKGFSQLPVVNEENKVIGTIAENNINDMLLKGMSIDSLRGLTVRRVMSDVLPQVDRNTPVNIIYQLLKYSNAVLVIEAGNLVGIITKADILKTVAGMI”, the “soluble on expression in E. coli” value is “not soluble”.

Turning to “MENELQDFPEPNYNVHAFYYVWYGSPQFDGKYVHWDHPLLPHWDPKVASSYSTGRHQPPEDIGANFYPALGPYSSRDPAVLEEHMRQLRMAAVGVLAVSWYPRSMKDDNGEEIDSLLPLILDAADKYQLKVLYNLYVFKNVICINKYV”, the “soluble on expression in E. coli” value was “not soluble”.

Turning to “MENNNSPTNAAEHNQKIDPRNYDDVLSVAASIREQVGEDVARADLGIICGSGLGPIGDTVQDATILPYSKIPGFPTTHVVGHKGNMIFGKLGGKKVVCLQGRFHPYEHNMDLALCTLPVRVMHQLGIKIMIVSNAAGGINAVLRHGDLMLIKDHIFLPALAGFSPLVGCNDPRFGARFVSVHDAYDKQLRQLAIDVGRRSDMTLYEGVYVMSGGPQYESPAEVSLFKTVGADALGMSTCHEVTVARQCGIKVLGFSLITNIANLDADASVEVSHEEVMDIAQQAGERASRFVSDIITEITL”, the “soluble on expression in E. coli” value is listed as “not soluble”.

Consider “MENQVEVMTYAHLKEIMQALEANEAITEDTKVFIDTGWDSVQEVAPDAVSIEKVAKFTVADVLTNESFAGYSLEEKAEKMNAEGDLETAIIIRNLY”, for which the “soluble on expression in E. coli” value was “not soluble”.

With “MENRRIVIITGANSGIGKEAAQRFANEGDHVIMACRNIAFSRKVQHDIIAASGNDHVDLLELDVSSFASIRTFCTTFNSQYKRLDILIHNAAYFNHGEPYRLSPDGIELTFATNVFGPYLLTSLLRDRLKQSEDPRILHAGSNIIKHFFDPKQTFDLDLLQGNHGTKSYSVYKMYCQSKMALMLLTFQMAEVFADDGIKVNALQINGAKMSKRTIQKVKPWWRPIAWGQNLFFPPPSYMADKYFTICTSDKYKQTTGKLFNDKLEIMEPSPTHYPGFFKQMKLLLGSNVYPAYENTNIREKLWALCKELVGELEHHHHHH”, the “soluble on expression in E. coli” value was “not soluble”.

“MENTVLNLDSDVIHACEAIFQPIRLVYTHAQTPDVSGVSMLEKIQQILPQIAKNAESAEQLRRVPDENIKLLKEIGLHRAFQPKVYGGLEMSLPDFANCIVTLAGACAGTAWAFSLLCTHSHQIAMFSKQLQDEIWLKDPDATASSSIAPFGKVEEVEGGIILNGDYGWSSGCDHAEYAIVGFNRFDADGNKIYSFGVIPRSDYEIVDNWYAQAIKSSGSKMLKLVNVFIPEYRISKAKDMMEGKSAGFGLYPDSKIFYTPYRPYFASGFSAVSLGIAERMIEAFKEKQRNRVRAYTGANVGLATPALMRIAESTHQVAAARALLEKTWEDHRIHGLNHQYPNKETLAFWRTNQAYAVKMCIEAVDRLMAAAGATSFMDNSELQRLFRDAHMTGAHAYTDYDVCAQILGRELMGMEPDPTMV”: the “soluble on expression in E. coli” value was “soluble”.

For “MEPEEERIRYSQRLRGTMRRRYEDDGISDDEIEGKRTFDLEEKLHTNKYNANFVTFMEGKDFNVEYIQRGGLRDPLIFKNSDGLGIKMPDPDFTVNDVKMCVGSRRMVDVMDVNTQKGIEMTMAQWTRYYETPEEEREKLYNVISLEFSHTRLENMVQRPSTVDFIDWVDNMWPRHLKESQTESTNAILEMQYPKVQKYCLMSVRGCYTDFHVDFGGTSVWYHIHQGGKVFWLIPPTAHNLELYENWLLSGSQGDIFLGDRVSDCQRIELKQGYTFVIPSGWIHAVYTPTDTLVFGGNFLHSFNIPMQLKIYNIEDRTRVPNKFRYPFYYEMCWYVLERYVYCITNRSHLTKEFQKESLSMDLELNGLESGNGDEEAVDREPRQVHLTHFELEGLRCLVDKLESLPLHKKCVPTGIEDEDALIADVKILLEELANSDPKLALTGVPIVQWP”, the “soluble on expression in E. coli” value is recorded as “soluble”.

Regarding “MEPLLSLKSVSKSYDDLNILDDIDIDIESGYFYTLLGPSGCGKTTILKLIAGFEYPDSGEVIYQNKPIGNLPPNKRKVNTVFQDYALFPHLNVYDNIAFGLKLKKLSKTEIDQKVTEALKLVKLSGYEKRNINEMSGGQKQRVAIARAIVNEPEILLLDESLSALDLKLRTEMQYELRELQSRLGITFIFVTHDQEEALALSDFLFVLKDGKIQQFGTPTDIYDEPVNRFVADFIGESNIVEGRMVRDYVVNIYGQDFECVDMGIPENKKVEVVIRPEDISLIKAEEGLFKATVDSMLFRGVHYEICCIDNKGYEWVIQTTKKAEVGSEVGLYFDPEAIHIMVPGETEEEFDKRIESYEEVDNA”, the “soluble on expression in E. coli” value is given as “not soluble”.

Regarding “MEQKNEEIEAIDDRMIAGVEVNFQKMRRSKHKTEERLTSGQVDAFAQKLFEAYPDGSLEGFLDIDDVQKKKLDEQRQEFTGDYPIVQPVLDGSRELMVVLRYNPLYHAVEIYDPVQIYDSEGIPMVVKPIREQIVNLFAHLFLDKIRLIFDIEYEQQADKCSDRLRAVGAMMAIALGYNPAAMDYNLKGISKLVKKILNSESPDFKKFEKADIGTLNAKYSGQNRVTMFIGNNGETLLATRNVYGLEKHALKTGLGKMDKNGHVVERESFLEEEFHDETIYKQFHAPDLGMGKPDNVNAIKLFHVDYRDYDLQNANGLERPIYLEPYKPVQSDCFAVPNLTSTLDRVSSNGELLKYVNEVMQSITPYTPYHLHAQSVEYLRYTPRHMNMCINPLQAIRAWALLANMADGKTNTDLLNFVGKYTYPGQLENNKMMNDDILNLHFEAEKLFEGCVRVFTELPKHLWHNEDIRIIQNSYYGGKSLRGAMQHHCFATDPDGLYSCHRINEEVALSTHGAVNFVVPENHAPNWRASIALVSAMDCTFYWKTYAKPKLMDNFNFVNEQYGASKCVGYFAHADFKFFEDIYCLESRIPGVRLYITFESPDKMDSKKEFMSKLHEKIQTCGDWHTTFDSPVFLPLCTTSTPLSLYAHAKASGLSRIFSSEKSELLEMKSIPARGGARQFSTLYDHYHKTVFEVHGSDPKVENFMRKRPRRMFDQFSPARAHQCVDDSMAELHGKYQMKNPTKEFNNKMNINPLLTYRENHLNHDEPSFEWLHENHEFDLKDPKALMFNKPFYYVMTRALVGKNQLIVCAGYFNNTTWVKQQ”, the “soluble on expression in E. coli” value is recorded as “not soluble”.

Turning to “MEQQFILRLHESIKHVVDLGNSTIDICDDRSVVLTHNNKKYPGIVVRLPCIVESQKTMDSRQHYKVADISTLVVVYPDDSFDFDKEREMYELSGLSPPLKYVKARRFRKKSSKIEYVEEIEKKVNDLLEKDMKARSVEVVAKEEKETSDDLDVLAAEIENKLVDNAEAHKEEVQSRPDEIGEKKEEQPRNEEIERLEKGIEEKRRQMESALNPILQKRFESQLNVLLKELEDVKKGMEME”, the “soluble on expression in E. coli” value is given as “soluble”.

As for “MERCGWVSQDPLYIAYHDNEWGVPETDSKKLFEMICLEGQQAGLSWITVLKKRENYRACFHQFDPVKVAAMQEEDVERLVQDAGIIRHRGKIQAIIGNARAYLQMEQNGEPFVDFVWSFVNHQPQVTQATTLSEIPTSTSASDALSKALKKRGFKFVGTTICYSFMQACGLVNDHVVGCCCYPGNKP”, the “soluble on expression in E. coli” value was “not soluble”.

For the sequence “MERGEIWLVSLDPTAGHEQQGTRPVLIVTPAAFNRVTRLPVVVPVTSGGNFARTAGFAVSLDGVGIRTTGVVRCDQPRTIDMKARGGKRLERVPETIMNEVLGRLSTILT”, the “soluble on expression in E. coli” value is recorded as “soluble”.

“MERILLVLDDTGRGEIAFQKLKKLAEDGLRGEVYILYIREMEVPPFVPEEKELAAYHRLMTQSMKKLEGFKNQLEKAGLKVSDVSVVFGKYADRLLLVEKQIKPDLIVVGFKGGLLKRVIGGFFGKDPCEVLLKKSKASLLICRG”: the “soluble on expression in E. coli” value is given as “not soluble”.

As for “MERLHLSWEDLLRLVRRLAEALSGEPFDLVLGVARGGLIPTALLAQALGARNILTAAVMFYEGEEALPEPVFLQFPPDVLLFGKRVLVVDDVWDSGRTAFAVKARVRRAGGVPVVATLHFKPGRNRVPDRPDFYAEETAAWVVYPWALEAWPKG”, the “soluble on expression in E. coli” value is listed as “soluble”.

For “MERVAIFIDGSNLYKGLVQHLGSDYRLNFVEFITLLTAGRKLLRAYYYNAPLPPEDPAAKAHQSFLNYLKRVPYVTVRLGRLERRADGFVEKGVDIQIAVDMLRLAFVNAYDIAVLVSGDGDFAEVVRVVQDLGKQVENTTFHALSSHRLAQQADHFYPLDDFPWERLRAQVSPASPEEEA”, the “soluble on expression in E. coli” value is on record as “soluble”.

For “MERVLITGGAGFIGSHLVDDLQQDYDVYVLDNYRTGKRENIKSLADDHVFELDIREYDAVEQIMKTYQFDYVIHLAALVSVAESVEKPILSQEINVVATLRLLEIIKKYNNHIKRFIFASSAAVYGDLPDLPKSDQSLILPLSPYAIDKYYGERTTLNYCSLYNIPTAVVKFFNVFGPRQDPKSQYSGVISKMFDSFEHNKPFTFFGDGLQTRDFVYVYDVVQSVRLIMEHKDAIGHGYNIGTGTFTNLLEVYRIIGELYGKSVEHEFKEARKGDIKHSYADISNLKALGFVPKYTVETGLKDYFNFEVDNIEEVTAKEVEMS”, the “soluble on expression in E. coli” value is reported as “not soluble”.

For the sequence “MERVRRASHAGSWYTNNARKLDEELDGWLRAAGLTKSPDVRAVIAPHAGYSYSGRCAAYAFGNIDPTNISRVFLLGPSHHYYTPKCALTRATIYSTPIGDLPVDHEVIEELNATGKFDFMDLSVDEAEHSMEMHLPYLSKVFQGHNVKVVPILVGALNSQNEAMYGQLLSKYLDDPKNFFSISSDFCHWGTRFSYTYYDKSHGAIHKSIEALDRMGMEIIETGNPDAFKQYLQEYENTICGRHPISVFLSMLKHCLTKIKIGFVRYEQSSQCKSMRDSSVSYASAAAKVDTPAEEEKD”, the “soluble on expression in E. coli” value was “soluble”.

For the sequence “MESCITVIGERDVVLGFRLLGIQHTIIAEGKDLLKKFLEVFQNPQCNIIIVSENVKNMMDKRTLRSVEISSKPLVVFIPLPGVREEETIEEMAKRILGIDIGNVLEHHHHHH”, the “soluble on expression in E. coli” value was “not soluble”.

Regarding “MESEQCPVGKIPHIRMDDGAGIEEFYTFGRILGQGSFGMVFEAIDKETGAKWAIKKVNKEKAGSSAMKLLEREVSILKTVNHQHIIHLEQVFESPQKMYLVMELCEDGELKAVMDQRGHFSENETRLIIQSLASAIAYLHNKDIVHRDLKLENIMVKSSFIDDNNEMNLNIKVTDFGLSVQKHGSRSEGMMQTTCGTPIYMAPEVINAHDYSQQCDIWSIGVIMFILLCGEPPFLANSEEKLYELIKKGELRFENPVWESVSDSAKNTLKQLMKVDPAHRITAKELLDNQWLTGNTLSSARPTNVLEMMKEWKNNPESDEETNTDEETEQSAVYSPSANTAKQPTNAAKKPAAESVGMTSSNSSSSKLLSAESKAEPEKSSETVGHASVAKTTLKSTTLFRGKKRL”, the “soluble on expression in E. coli” value is listed as “soluble”.

As to “MESHENPGMFSRLLRLFHRENGDQGETRPRQKEFGILSYEKGRMKSFWGRHVSAGKTSSQSCNITNHMKNMNKLEDMKFYIRKINAEREELFRILDIDMNTDLNYSIRHTHLLKKCNQLKKKVRMLLNENRKLLVEQADQEASFGEEKSSVMRPARTYIPSAKQQQV”, the “soluble on expression in E. coli” value is listed as “not soluble”.

Regarding “MESKVERYVENYVVTKNTMALLPVILSEKKIVTRVVEMNDSFFVFQKPLDIIERSCRKHGSSFLGRKEGTKELTHITHKAPIAISPADQLYFFPTYSYSRKECAWLSHFYIESNKELKDGNLIIRFINGFAVKLEISKTSFENQQNRTAKLRTEYEDRRKKQGNPCFKEVDKKEESTLRPAYESVYFVKEGEV”, the “soluble on expression in E. coli” value was “not soluble”.
